This test addresses CgIgR (native, oyster hemocytes) (Crassostrea gigas (endogenous in oyster hemocytes)). The experiment in a line: cross-linking.

Here are results for one substance from paper PMC6994640.

Take “CgIgR (native, oyster hemocytes) (receptor)”: the stoichiometry N came out at 2.
